Test results reported in PMC2778851.

Legend:
[1] = biological target: HTLV-1 125 PR (stabilized full-length HTLV-1 protease) (Human T-lymphotropic virus type 1 (HTLV-1)); test: SEC
[2] = biological target: HTLV-1 125 PR (stabilized full-length HTLV-1 protease) (Human T-lymphotropic virus type 1 (HTLV-1)); test: activity-based dimerization assay
[3] = biological target: His-HTLV-1 125 PR (N-terminally His-tagged full-length stabilized HTLV-1 protease) (Human T-lymphotropic virus type 1 (HTLV-1)); test: pull-down
[4] = biological target: HTLV-1 120 PR (HTLV-1 protease shortened by 5 C-terminal residues) (Human T-lymphotropic virus type 1 (HTLV-1)); test: activity-based dimerization assay

HTLV-1 125 PR (stabilized full-length HTLV-1 protease) (enzyme)
stoichiometry N [1]: 2 | Kd [2]: 491 nM | densitometric ratio of the untagged to the His-tagged band (125/H125) [3]: 84.9

HTLV-1 115 PR (HTLV-1 protease shortened by 10 C-terminal residues) (domain or fragment)
densitometric ratio of the untagged to the His-tagged band (115/H125) [3]: 37.3

HTLV-1 120 PR (HTLV-1 protease shortened by 5 C-terminal residues) (domain or fragment)
Kd [4]: > 3000 nM | densitometric ratio of the untagged to the His-tagged band (120/H125) [3]: 37.2
